The source of these data is patent publication US20220204587A1.

Holding throughout (test): cell-based or functional assay
In one assay the target is TGF-β1 (UniProt P01137).
The target in another assay is T1, TGF-β2 (UniProt P61812).
T1 sequence (looked up): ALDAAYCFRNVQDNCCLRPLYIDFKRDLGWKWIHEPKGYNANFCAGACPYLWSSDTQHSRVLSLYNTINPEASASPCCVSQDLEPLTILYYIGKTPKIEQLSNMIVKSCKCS

In a further assay the target is TGF-β3 (UniProt P10600).
Chain of TGF-β3 (P10600 301-412 limits assumed): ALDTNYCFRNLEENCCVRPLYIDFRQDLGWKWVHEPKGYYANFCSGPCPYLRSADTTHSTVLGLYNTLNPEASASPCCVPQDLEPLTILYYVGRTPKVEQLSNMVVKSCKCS

Chain of TGF-β1 (P01137 279-390 limits assumed): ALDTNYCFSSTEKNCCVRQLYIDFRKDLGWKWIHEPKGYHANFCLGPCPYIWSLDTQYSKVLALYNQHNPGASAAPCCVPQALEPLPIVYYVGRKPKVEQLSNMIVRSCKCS

B1: T22d35-Fc-IgG2-v2 (CC) (Fc fusion)
chain: IPPHVQKSVNNDMIVTDNNGAVKFPQLCKFCDVRFSTCDNQKSCMSNCSITSICEKPQEVCVAVWRKNDENITLETVCHDPKLPYHDFILEDAASPKCIMKEKKKPGETFFMCSCSSDECNDNIIFSEEYNTSNPDIPPHVQKSVNNDMIVTDNNGAVKFPQLCKFCDVRFSTCDNQKSCMSNCSITSICEKPQEVCVAVWRKNDENITLETVCHDPKLPYHDFILEDAASPKCIMKEKKKPGETFFMCSCSSDECNDNIIFSEEYNTSNPDVECPPCPAPPVAGPSVFLFPPKPKDTLMISRTPEVTCVVVDVSHEDPEVQFNWYVDGVEVHNAKTKPREEQFNSTFRVVSVLTVVHQDWLNGKEYKCKVSNKGLPAPIEKTISKTKGQPREPQVYTLPPSREEMTKNQVSLTCLVKGFYPSDISVEWESNGQPENNYKTTPPMLDSDGSFFLYSKLTVDKSRWQQGNVFSCSVMHEALHNHYTQKSLSLSPG
B1 had an IC50 (nM), neutralization of TGF-β1-induced IL-11 release by A549 cells with TGF-β1 of 0.00278 nM.

B2: T22d35-Fc fusion protein (TβRII-ECD doublet fused to the N-terminus of a human IgG2 Fc, hinge …) (Fc fusion)
chain: IPPHVQKSVNNDMIVTDNNGAVKFPQLCKFCDVRFSTCDNQKSCMSNCSITSICEKPQEVCVAVWRKNDENITLETVCHDPKLPYHDFILEDAASPKCIMKEKKKPGETFFMCSCSSDECNDNIIFSEEYNTSNPDIPPHVQKSVNNDMIVTDNNGAVKFPQLCKFCDVRFSTCDNQKSCMSNCSITSICEKPQEVCVAVWRKNDENITLETVCHDPKLPYHDFILEDAASPKCIMKEKKKPGETFFMCSCSSDECNDNIIFSEEYNTSNPDERKCCVECPPCPAPPVAGPSVFLFPPKPKDTLMISRTPEVTCVVVDVSHEDPEVQFNWYVDGVEVHNAKTKPREEQFNSTFRVVSVLTVVHQDWLNGKEYKCKVSNKGLPAPIEKTISKTKGQPREPQVYTLPPSREEMTKNQVSLTCLVKGFYPSDISVEWESNGQPENNYKTTPPMLDSDGSFFLYSKLTVDKSRWQQGNVFSCSVMHEALHNHYTQKSLSLSPG
For B2, in the assay with TGF-β1, the IC50 (nM), neutralization of TGF-β1-induced IL-11 release by A549 cells stood at 0.00286 nM; the IC50 (nM), neutralization of TGF-β-induced IL-11 release by A549 cells amounted to 0.00335 nM; the fold better neutralization potency than T2m-Fc (A549 IL-11 release assay) was determined as 615 fold; the fold better neutralization potency than T22d35 (A549 IL-11 release assay) came to 970 fold. This molecule showed an IC50 (nM), neutralization of TGF-β-induced IL-11 release by A549 cells with TGF-β2 of 10.6 nM. Further, in the assay with TGF-β3, the IC50 (nM), neutralization of TGF-β-induced IL-11 release by A549 cells came out at 0.00391 nM; the fold better neutralization potency than T2m-Fc (A549 IL-11 release assay) came to 24 fold; the fold better neutralization potency than T22d35 (A549 IL-11 release assay) was 240 fold.
